Data on 4 molecules can be found in publication PMC3526858 (Biochemical Journal, 2012).

The target in data set [1] is EssBΔC, EssB truncated by 43 C-terminal residues, detergent-solubilised (S. aureus subsp. aureus) (UniProt Q2G185). The experiment in a line: SEC.
Data set [2] addresses EssB-N, N-terminal cytoplasmic fragment of EssB (residues 12-226) (S. aureus subsp. aureus) (UniProt Q2G185). The experiment in a line: native gel or EMSA.
Data set [3] deals with the molecule itself. The experiment in a line: native gel or EMSA.

As for “EssBΔC, EssB truncated by 43 C-terminal residues, detergent-solubilised (from UniProt Q2G185 1-400) (domain or fragment)”, in data set [1], the stoichiometry N amounted to 2.
As to “EssB-N, N-terminal cytoplasmic fragment of EssB (residues 12-226) (from UniProt Q2G185 12-226) (domain or fragment)”, the stoichiometry N in data set [2] amounted to 2.

B1: EssB-C, C-terminal fragment of EssB (residues 257-444) (domain or fragment, S. aureus subsp. aureus)
chain: GASERIEKGYQAFVKDDYTQVLNTYDDLDGKKLDKEALYIYAKSYIQTNKQGLEKDKKENLLNNVTPNSNKDYLLYWMELGQGHLDEAINIATYLDDNDITKLALINKLNEIKNNGDLSNDKRSEETKKYNDKLQDILDKEKQVKDEKAKSEEEKAKAKDEKLKQQEENEKKQKEQAQKDKEKRQEAERKK
For B1, in data set [3], the “stoichiometry N” value amounted to 2.

B2: Full-length EssB (S. aureus), detergent-solubilised (natural protein, S. aureus subsp. aureus)
chain: GASMVKNHNPKNEMQDMLTPLDAEEAAKTKLRLDMREIPKSSIKPEHFHLMYLLEQHSPYFIDAELTELRDSFQIHYDINDNHTPFDNIKSFTKNEKLRYLLNIKNLEEVNRTRYTFVLAPDELFFTRDGLPIAKTRGLQNVVDPLPVSEAEFLTRYKALVICAFNEKQSFDALVEGNLELHKGTPFETKVIEAATLDLLTAFLDEQYQKQEQDYSQNYAYVRKVGHTVFKWVAIGMTTLSVLLIAFLAFLYFSVMKHNERIEKGYQAFVKDDYTQVLNTYDDLDGKKLDKEALYIYAKSYIQTNKQGLEKDKKENLLNNVTPNSNKDYLLYWMELGQGHLDEAINIATYLDDNDITKLALINKLNEIKNNGDLSNDKRSEETKKYNDKLQDILDKEKQVKDEKAKSEEEKAKAKDEKLKQQEENEKKQKEQAQKDKEKRQEAERKK
On to B2, for which the “stoichiometry N” value in data set [3] worked out at 2.
